Each block holds one binder with its values, some of them ahead of it.
Columns and labels:
[1] = biological target: human NL1(–A+B)_(ECTO), immobilised for SPR (human); assay: SPR; biotinylated NL_(ECTO)-Avitag variants captured from dialysed conditioned medium on streptavidin CM5 chip (500 RU; 550 RU for the ΔSite series; 1000 RU for NL3 and NL3 Arg451Cys in the R451C series); β-NRX1_(LNS6)(±4), MDGA1_(ECTO), MDGA2_(ECTO) injected, 15 concentrations, two-fold series from 50 μM; TBS-CTB (10 mM Tris pH 7.4, 150 mM NaCl, 3 mM CaCl2, 0.005% Tween-20, 1.0 g/L BSA); equilibrium analysis, 1:1 Langmuir model
Chain of human NL1(–A+B)_(ECTO), immobilised for SPR (human) (Q8N2Q7 whole entry): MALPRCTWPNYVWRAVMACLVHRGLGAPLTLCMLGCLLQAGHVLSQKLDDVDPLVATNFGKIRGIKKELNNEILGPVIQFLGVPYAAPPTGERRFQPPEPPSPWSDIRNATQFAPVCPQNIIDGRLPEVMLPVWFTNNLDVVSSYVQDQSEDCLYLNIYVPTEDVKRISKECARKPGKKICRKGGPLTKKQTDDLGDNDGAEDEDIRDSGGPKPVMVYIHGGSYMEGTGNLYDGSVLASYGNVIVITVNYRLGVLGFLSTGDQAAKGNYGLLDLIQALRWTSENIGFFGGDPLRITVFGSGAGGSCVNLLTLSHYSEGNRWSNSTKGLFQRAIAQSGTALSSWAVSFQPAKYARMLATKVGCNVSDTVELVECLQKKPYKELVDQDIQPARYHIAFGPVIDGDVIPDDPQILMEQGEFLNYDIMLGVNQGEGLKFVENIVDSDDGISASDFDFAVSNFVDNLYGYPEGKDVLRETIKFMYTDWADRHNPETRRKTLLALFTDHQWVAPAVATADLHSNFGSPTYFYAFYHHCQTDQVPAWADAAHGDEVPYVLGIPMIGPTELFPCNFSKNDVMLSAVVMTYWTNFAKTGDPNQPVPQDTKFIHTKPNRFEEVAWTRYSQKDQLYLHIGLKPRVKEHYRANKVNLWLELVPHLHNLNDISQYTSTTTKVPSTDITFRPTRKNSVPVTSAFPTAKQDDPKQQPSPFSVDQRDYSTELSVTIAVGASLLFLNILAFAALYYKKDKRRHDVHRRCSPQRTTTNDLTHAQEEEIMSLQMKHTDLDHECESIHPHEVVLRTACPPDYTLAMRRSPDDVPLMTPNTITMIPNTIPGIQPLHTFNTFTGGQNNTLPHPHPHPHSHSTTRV

[2] = biological target: human NL1(–A–B)_(ECTO), biotinylated and immobilised for SPR (human); assay: as above
Chain of human NL1(–A–B)_(ECTO), biotinylated and immobilised for SPR (human) (Q8N2Q7 whole entry): as above

fold weaker than with NL1(–A–B) (ECTO) [1]: 7 fold | Kd [2]: 1000 nM
B1: human MDGA2 extracellular domain (MDGA2_(ECTO); Gln21-Lys927) (domain or fragment)
chain: QGVYAPPTVRIVHSGLACNIEEERYSERVYTIREGETLELTCLVTGHPRPQIRWTKTAGSASDRFQDSSVFNETLRITNIQRHQGGRYYCKAENGLGSPAIKSIRVDVYYLDDPVVTVHQSIGEAKEQFYYERTVFLRCVANSNPPVRYSWRRGQEVLLQGSDKGVEIYEPFFTQGETKILKLKNLRPQDYANYSCIASVRNVCNIPDKMVSFRLSNKTASPSIKLLVDDPIVVNPGEAITLVCVTTGGEPAPSLTWVRSFGTLPEKTVLNGGTLTIPAITSDDAGTYSCIANNNVGNPAKKSTNIIVRALKKGRFWITPDPYHKDDNIQIGREVKISCQVEAVPSEELTFSWFKNGRPLRSSERMVITQTDPDVSPGTTNLDIIDLKFTDFGTYTCVASLKGGGISDISIDVNISSSTVPPNLTVPQEKSPLVTREGDTIELQCQVTGKPKPIILWSRADKEVAMPDGSMQMESYDGTLRIVNVSREMSGMYRCQTSQYNGFNVKPREALVQLIVQYPPAVEPAFLEIRQGQDRSVTMSCRVLRAYPIRVLTYEWRLGNKLLRTGQFDSQEYTEYAVKSLSNENYGVYNCSIINEAGAGRCSFLVTGKAYAPEFYYDTYNPVWQNRHRVYSYSLQWTQMNPDAVDRIVAYRLGIRQAGQQRWWEQEIKINGNIQKGELITYNLTELIKPEAYEVRLTPLTKFGEGDSTIRVIKYSAPVNPHLREFHCGFEDGNICLFTQDDTDNFDWTKQSTATRNTKYTPNTGPNADRSGSKEGFYMYIETSRPRLEGEKARLLSPVFSIAPKNPYGPTNTAYCFSFFYHMYGQHIGVLNVYLRLKGQTTIENPLWSSSGNKGQRWNEAHVNIYPITSFQLIFEGIRGPGIEGDIAIDDVSIAEGECAKQDLATK

fold weaker than with NL1(–A–B) (ECTO) [1]: 7 fold | Kd [2]: 2000 nM
B2: human MDGA1 extracellular domain (MDGA1_(ECTO); Gln19-Lys925) (domain or fragment)
chain: QGVYAPAQAQIVHAGQACVVKEDNISERVYTIREGDTLMLQCLVTGHPRPQVRWTKTAGSASDKFQETSVFNETLRIERIARTQGGRYYCKAENGVGVPAIKSIRVDVQYLDEPMLTVHQTVSDVRGNFYQEKTVFLRCTVNSNPPARFIWKRGSDTLSHSQDNGVDIYEPLYTQGETKVLKLKNLRPQDYASYTCQVSVRNVCGIPDKAITFRLTNTTAPPALKLSVNETLVVNPGENVTVQCLLTGGDPLPQLQWSHGPGPLPLGALAQGGTLSIPSVQARDSGYYNCTATNNVGNPAKKTVNLLVRSMKNATFQITPDVIKESENIQLGQDLKLSCHVDAVPQEKVTYQWFKNGKPARMSKRLLVTRNDPELPAVTSSLELIDLHFSDYGTYLCMASFPGAPVPDLSVEVNISSETVPPTISVPKGRAVVTVREGSPAELQCEVRGKPRPPVLWSRVDKEAALLPSGLPLEETPDGKLRLERVSRDMSGTYRCQTARYNGFNVRPREAQVQLNVQFPPEVEPSSQDVRQALGRPVLLRCSLLRGSPQRIASAVWRFKGQLLPPPPVVPAAAEAPDHAELRLDAVTRDSSGSYECSVSNDVGSAACLFQVSAKAYSPEFYFDTPNPTRSHKLSKNYSYVLQWTQREPDAVDPVLNYRLSIRQLNQHNAVVKAIPVRRVEKGQLLEYILTDLRVPHSYEVRLTPYTTFGAGDMASRIIHYTEPINSPNLSDNTCHFEDEKICGYTQDLTDNFDWTRQNALTQNPKRSPNTGPPTDISGTPEGYYMFIETSRPRELGDRARLVSPLYNASAKFYCVSFFYHMYGKHIGSLNLLVRSRNKGALDTHAWSLSGNKGNVWQQAHVPISPSGPFQIIFEGVRGPGYLGDIAIDDVTLKKGECPRKQTDPNK

Reference: PMC5563082
